Test: soluble on expression in E. coli; label from the status in PepcDB or PDB records

Sequence	soluble on expression in E. coli
MGSDKIHHHHHHMQFDNLLSRADDGTLQVLLGNAAVRLIKLLDPSLVTPSRLREILMELHTPASLLLTKDSRAMLLDLLRPEQAKILATIMQVPLTGDIFETLKKTSIRHGSNRERALFDFFELELPQPEDSVQSSSLELAVSNYPLFAHQRIAARKVKNYFKQEPRRVLLHMPTGSGKTRTAMNIIADHLRSVEPTIVVWLAYSEELCEQAATEFQKAWQCLGDRQVSLYRFWGEHEIDVDKLEDGIVVAGLSKVYNRTKQSIQFINRLGKVSSLVIIDEAHQAIAETYKLVLDALVVPYENTALLGLTATPGRTWSDINVDTELSEFFAKNKVTLEVSGYSNPVDYLISEEYLAKPNFRSLFYKNGLKLTQKDLERIQQELEIPQHILEQLADDEQRNLSIIIEVEELAKRHQRILIFGISIKHSKLLATVLRARGLQANVVTGDTPLLERTRLINSFKDDSDETKIICNYGVLTTGFDAPRTSAAVIARPTKSLVLYSQMVGRAIRGVKAGGNVTAEIVTVVDSALRGFGSLEEAFSNWEDVWHKEKI	not soluble
GPYGAPAGPLIVPYNLPLPGGVVPRMLITILGTVKPNANRIALDFQRGNDVAFHFNPRFNENNRRVIVCNTKLDNNWGREERQSVFPFESGKPFKIQVLVEPDHFKVAVNDAHLLQYNHRVKKLNEISKLGISGDIDLTSASYTMI	soluble
MDMPHSTTHDASPAPCQRCGMAGATCCTIDPTDASLCFPVSRSEWERIVDHCDKRGGFATEPNTRPFVDNLIRLFPGEAREIERLFPPHGFHLRLAVDAKGNCAFLGPEGCTLPREVRPWYCLVFPFWLQGGRIAIFTPSGCVAVREGRTVPGCLALMNFTARDVRRLAGRLRLAWGLPPLDENGETLLEHHHHHH	not soluble
MNKKNICALAVLSGLSFSAMALDCDPNLLPSWQDGASKTAIVNYVDQSTDASKKTFIPEQDRIAVFDNDGTLWSEKPYYFQLAFALDQVKNMAKEHPEWKTQEPFKSVLNNDIKNVFAGGEKALLDIVTATHSGMTVEEYQQTVAQWLEVAKDPHFNKAYTELTYKPMREMVTYLQDHDFKVYIVSGGGVDFMRTWAPEVYGIPEEQIIGSALKYKYDYNNSNPTVTKLGEILTIDDKAGKVENIQHIIGKKPVLAIGNSDGDHAMMQWATSQPNSMAMIVHHTDEAREWKYDRKSSVGHLDKAMDEANQRDNWYLIDMKNEWCTVY	soluble
MAHHHHHHMRPGRLDKTIVVPLPDIKGRYEILKMYSSKIVLSKDVDLHVLSRRTVGMTGADLNNILNIAAIKCSVEGKKAVDMNSIEQAFDRVVVGLQRKSPLNEEEKNITAYHEGGHTLVNFYTKGSDPVHKATIMPRGMSLGVTWKIPISDKYSQKIRDVQSEIDILMGGLVSEEIIFGKNNVTTGCSSDLQRATHIAQSLVMNYGVGINEENISMFLQDKKNISEEMKIKIDKSIQRILLDSYNRAKKVLNQHIDELHRVASALVEYETLTSDEIKLAMQGKHDQIRKNRELKQKEFNLKDSRIS	not soluble
MAHHHHHHMGSSSPSSLLPPALMPCHVWEGREEGISVETARGRREVEINRKKGHMASPKEMYEKECRALGVPPNSGLLRMLPESTVNLSGLSVMHLGHNFLGDRGVVPFVHIIAHASSLHTLNLRENGIGNEGVRVLCRGLRRLPALKVLELSGNPFTFLAARQLVYLCEDSPVLSVIGVEGTLMTEKLKTSIIHRIREAVKRREARKQLSQQPSADRDDGQKDMAEGVAEAEGKVVERAAPIAAEEATTLRSRNVGGPCLRKSVLSLVSQDSMSTAMSSKFKKNEPDDQAGPRGANEFASPCSPLPPPPPDDAHQSPLWFDASEDEEQKEEKKEISVATAENDEKMMIDTAGSISFLVDVEELRANSVERELRAQEEMLPWQVSRADDPLRSLHSTHTRIASHRTTEKRSESGTAISFPSSFTLELRTAEAEGKLAECTKSTKGDDFLDLLFGSEVD	not soluble
AHHHHHHGSISETIRSGDWKGEKHVPVIEYEREGELVKVKVQVGKEIPHPNTTEHHIRYIELYFLPEGENFVYQVGRVEFTAHGESVNGPNTSDVYTEPIAYFVLKTKKKGKLYALSYCNIHGLWENEVTLE	soluble
